Experimental data from patent publication US11156558B2, “Assessment of stability of biological product in prefilled syringes” (Becton Dickinson France, priority 2016, dated 2021).

What was measured:
[1] = Stability of mimetic peptide solution stored in direct contact with adhesive and insoluble tungsten (UPLC/DAD); format: physicochemical; details: insoluble tungsten, 3 days at 70° C., ammonium acetate pH4 buffer (20 mM)+0.02% tween 80, 45 μg/ml
Procedure: (§1) Peptide solutions were analyzed by LC/DAD/MS with Quattro premier XE Mass spectrometer from Waters.
The AAHAA (SEQ ID NO: 2) peptide was dissolved in ammonium acetate pH4 buffer (20 mM)+0.02% of tween 80 to a final concentration of 45 μg/ml. The AAHAA (SEQ ID NO: 2) peptide solution was stored in direct contact with the adhesive used to stake the needle to the syringe and with insoluble tungsten, a potential process residue, for 3 days at 70° C.
FIG. 3 is AAHAA (SEQ ID NO: 2) peptide ULPC/DAD chromatograms after 3 days at 70° C. in direct contact with two syringe components: (a) adhesive and (b) insoluble tungsten. (c) is chromatogram references.

[2] = Stability of mimetic peptide solution stored in direct contact with plunger stoppers (UPLC/DAD/MS); format: physicochemical
Procedure: as §1
The peptide AAWAA (SEQ ID NO: 1) was dissolved in ammonium acetate pH4 buffer (20 mM)+0.02% Tween 80 to a final concentration of 45 μg/ml. The obtained AAWAA (SEQ ID NO: 1) peptide solutions were stored in direct contact with a non-coated and an ETFE coated plunger stoppers for 30 days at 25° C./60% RH.
FIG. 1 is a UPLC/DAD chromatogram of AAWAA (SEQ ID NO: 1) pentapeptide in direct contact with a coated and a non-coated plunger stopper after 15 days (c, d) and 30 days (a,b) of storage at 25° C./60% RH. Chromatograms e and f are AAWAA (SEQ ID NO: 1) solutions references (without any direct contact with plunger stoppers),
FIG. 2 is the electrospray positiv (ESI+) mass spectra of (a) intact AAWAA (SEQ ID NO: 1) peptide (Retention time of 17.2 min) and (b) oxidized form of AAWAA (SEQ ID NO: 1)(Retention time of 17.1 min) detected after 30 days (25° C.) of contact between the non-coated plunger stopper and AAWAA (SEQ ID NO: 1) peptide solution.

Substance	reaction with syringe component (degradation) [1]	oxidized form (ESI+ mass spectra) ([2]; after 30 days (25° C.) of contact with the non-coated plunger stopper)	degradation yield ([2]; non-coated vs ETFE coated plunger stopper, direct contact, 30 days at 25° C./60% RH, ammonium acetate pH4 buffer (20 mM)+0.02% Tween 80, 45 μg/ml)
Ala-Ala-His-Ala-Ala (AAHAA; synthesized pentapeptide) [mimetic model pentapeptide]	react with insoluble tungsten		
Ala-Ala-Trp-Ala-Ala (AAWAA; synthesized pentapeptide) [mimetic model pentapeptide]		detected	more important when the peptide is in direct contact with the non-coated plunger stopper
